Data: patent US20260216366A1, “CONJUGATE AND USES THEREOF” (Full-Life Technologies UK Limited, priority 2022, published 2026)

B1: CLDN18.2-L009: Claudin 18.2 sdAb (SEQ ID NO. 1) conjugated with functional linker L009 (conjugate)
VHH: EVQLVESGGGLVQPGGSLRLSCAASGSFFRIVAMGWYRQAPGSQRELVATITRGGSTYYADSVKGRFTISRDNAKNTLYLQMNSLRAEDTAVYYCNVRVEVPFMQPNDYWGQGTLVTVSS
modifications: functional linker L009 conjugated
B2: CLDN18.2-L007: Claudin 18.2 sdAb (SEQ ID NO. 1) conjugated with functional linker L007 (conjugate)
VHH: B1 VHH
modifications: functional linker L007 conjugated
B3: CLDN18.2-L005: Claudin 18.2 sdAb (SEQ ID NO. 1) conjugated with functional linker L005 (conjugate)
VHH: B1 VHH
modifications: functional linker L005 conjugated
B4: CLDN18.2-L011: Claudin 18.2 sdAb (SEQ ID NO. 1) conjugated with functional linker L011 (conjugate)
VHH: B1 VHH
modifications: functional linker L011 conjugated
B5: CLDN18.2-L003: Claudin 18.2 sdAb (SEQ ID NO. 1) conjugated with functional linker L003 (conjugate)
VHH: B1 VHH
modifications: functional linker L003 conjugated
B6: CLDN18.2-L010: Claudin 18.2 sdAb (SEQ ID NO. 1) conjugated with functional linker L010 (conjugate)
VHH: B1 VHH
modifications: functional linker L010 conjugated
B7: CLDN18.2-L008: Claudin 18.2 sdAb (SEQ ID NO. 1) conjugated with functional linker L008 (conjugate)
VHH: B1 VHH
modifications: functional linker L008 conjugated
B8: CLDN18.2-L012: Claudin 18.2 sdAb (SEQ ID NO. 1) conjugated with functional linker L012 (conjugate)
VHH: B1 VHH
modifications: functional linker L012 conjugated
B9: CLDN18.2-L006: Claudin 18.2 sdAb (SEQ ID NO. 1) conjugated with functional linker L006 (conjugate)
VHH: B1 VHH
modifications: functional linker L006 conjugated
B10: CLDN18.2-DOTAGA: Claudin 18.2 sdAb (SEQ ID NO. 1) conjugated with DOTAGA, used as control for chelating imaging radioisotope (conjugate)
VHH: B1 VHH
modifications: DOTAGA chelator conjugated
B11: CLDN18.2-DOTAGA (VHH)
VHH: B1 VHH
modifications: DOTAGA chelator conjugated to the sdAb, residue not stated; DOL 1.23
notes: also called CLDN18.2 sdAb conjugated with DOTAGA
B12: CLDN18.2-L007 (VHH)
VHH: B1 VHH
modifications: functional linker L007 conjugated to the sdAb, residue not stated; DOL 1.69
notes: also called CLDN18.2 sdAb-linker L007 conjugate; linker 007 conjugate
B13: CLDN18.2-L004 (VHH)
VHH: B1 VHH
modifications: functional linker L004 conjugated to the sdAb, residue not stated; DOL 1.37
notes: also called CLDN18.2 sdAb-linker L004 conjugate
B14: CLDN18.2-L012 (VHH)
VHH: B1 VHH
modifications: functional linker L012 conjugated to the sdAb, residue not stated; DOL 1.65
notes: also called CLDN18.2 sdAb-linker L012 conjugate
B15: CLDN18.2-L010 (VHH)
VHH: B1 VHH
modifications: functional linker L010 conjugated to the sdAb, residue not stated; DOL 1.54
notes: also called CLDN18.2 sdAb-linker L010 conjugate; linker 010 conjugate
B16: CLDN18.2-L001 (VHH)
VHH: B1 VHH
modifications: functional linker L001 conjugated to the sdAb, residue not stated; DOL 1.13
notes: also called CLDN18.2 sdAb-linker L001 conjugate
B17: CLDN18.2-L002 (VHH)
VHH: B1 VHH
modifications: functional linker L002 conjugated to the sdAb, residue not stated; DOL 1.18
notes: also called CLDN18.2 sdAb-linker L002 conjugate
B18: CLDN18.2-L009 (VHH)
VHH: B1 VHH
modifications: functional linker L009 conjugated to the sdAb, residue not stated; DOL 1.77
notes: also called CLDN18.2 sdAb-linker L009 conjugate; linker 009 conjugate
B19: FAP-DOTAGA: FAP sdAb (SEQ ID NO. 5) conjugated with DOTAGA, used as control for chelating imaging radioisotope (conjugate)
VHH: QVQLLESGGGLVQPGGSLRLSCAASGFGFGNSLMSWVRRAPGKGLEWVSTIYPRGSFTDYADSVKGRFTISRDNSRNTLYLQMNSLRAEDTAVYYCATGWGRSSDYDPPGQGTLVTVSS
modifications: DOTAGA chelator conjugated
B20: FAP-L007: FAP sdAb (SEQ ID NO. 5) conjugated with functional linker L007 (conjugate)
VHH: B19 VHH
modifications: functional linker L007 conjugated

tested on: not listed separately; test: Pharmacokinetic study of CLDN18.2-linker conjugates (serum ELISA, NCA); assay type: in vivo, BALB/c mice; conditions: BALB/c mice, intravenous, about 1 mg/kg, serum, over 48 hours
Description: The in vivo pharmacokinetic profile of the CLDN18.2-linker conjugates was analyzed. Briefly, BALB/c mice were administered with the conjugates by intravenous injection at a dose of about 1 mg/kg. Then, whole blood of the animal was collected at different time points over 48 hours.
(§1) The whole blood was collected into a tube without anticoagulation and maintained at room temperature for more than 30 minutes, followed by centrifuge at approximately 5000 rpm at 4° C. for 5 minutes to obtain serum. Concentration of the conjugates in serum was then measured by ELISA using HRP-labeled goat anti-alpaca IgG VHH domain secondary antibody. The data was further analyzed using PK Solver software, and the […] (NCA) was used to evaluate the pharmacokinetic parameters, as shown in Table 7 and FIG. 2.

Row | Molecule | AUCall | Cl | T1/2 | Vd
1 | B1 | 148000 ± 5140 ng·h/mL | 0.083 ± 0 mL/min/kg | 1490 ± 323 min | 0.166 ± 0.023 L/kg
2 | B2 | 33100 ± 4920 ng·h/mL | 0.45 ± 0.05 mL/min/kg | 361 ± 73.8 min | 0.183 ± 0.014 L/kg
3 | B3 | 881 ± 118 ng·h/mL | 17.8 ± 2 mL/min/kg | 13.4 ± 1.56 min | 0.284 ± 0.017 L/kg
4 | B4 | 15700 ± 816 ng·h/mL | 0.95 ± 0.017 mL/min/kg | 90 ± 10.1 min | 0.106 ± 0.008 L/kg
5 | B5 | 460 ± 77 ng·h/mL | 30.2 ± 4.1 mL/min/kg | 11.2 ± 1.56 min | 0.431 ± 0.006 L/kg
6 | B6 | 14500 ± 149 ng·h/mL | 1.02 ± 0.033 mL/min/kg | 175 ± 7.02 min | 0.199 ± 0.012 L/kg
7 | B7 | 1880 ± 177 ng·h/mL | 7.32 ± 0.367 mL/min/kg | 38.2 ± 4.02 min | 0.375 ± 0.043 L/kg
8 | B8 | 2220 ± 223 ng·h/mL | 7.02 ± 0.7 mL/min/kg | 17.3 ± 1.14 min | 0.151 ± 0.025 L/kg
9 | B9 | 650 ± 69 ng·h/mL | 22.7 ± 2.2 mL/min/kg | 13.5 ± 0.36 min | 0.408 ± 0.026 L/kg
10 | B10 | 1450 ± 149 ng·h/mL | 10.2 ± 1.2 mL/min/kg | 32.9 ± 2.52 min | 0.245 ± 0.032 L/kg

same assay, conditions: FIG. 2; CLDN18.2 conjugate of the named linker compared to the control group

Row | Molecule | blood circulation of the CLDN18.2 conjugates
11 | Cc1ccc(CCCC(=O)NCCCCC(NC(=O)CNC(=O)CCC(C(=O)O)N2CCN(CC(=O)O)CCN(CC(=O)O)CCN(CC(=O)O)CC2)C(=O)NCc2ccc(N=C=S)cc2)cc1 (stereo not shown) [L010] | significantly prolonged blood circulation
12 | CCCCCCCCCCCCC(=O)NCCCCC(NC(=O)CNC(=O)CCC(C(=O)O)N1CCN(CC(=O)O)CCN(CC(=O)O)CCN(CC(=O)O)CC1)C(=O)NCc1ccc(N=C=S)cc1 (stereo not shown) [L011] | significantly prolonged blood circulation

molecular target: T1, human Claudin 18.2-VLP (human, UniProt P56856-2 1-261); test: ELISA, plate coated with human Claudin 18.2-VLP, HRP anti-sdAb detection; conditions: not given
T1 construct: also called CLDN18.2
T1 sequence (looked up): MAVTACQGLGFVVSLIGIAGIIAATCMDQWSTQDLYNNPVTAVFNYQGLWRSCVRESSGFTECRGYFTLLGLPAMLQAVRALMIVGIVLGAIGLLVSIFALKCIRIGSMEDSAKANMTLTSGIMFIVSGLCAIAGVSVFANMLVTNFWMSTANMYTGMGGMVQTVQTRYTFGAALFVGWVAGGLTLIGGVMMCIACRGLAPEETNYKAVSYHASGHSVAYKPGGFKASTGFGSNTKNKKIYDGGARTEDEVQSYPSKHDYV
Description: Binding affinities of the prepared conjugates with tumor antigen was evaluated by ELISA. […] On the next day, the plate was washed by 0.05% PBST and blocked by 10% StartingBlock buffer (Thermo, #37538) at room temperature for 1 hr. Then, 100 μL of serial diluted conjugate samples in 1% StartingBlock buffer was added to the plate. The plate was further incubated at room temperature for 2 hrs under shaking at 100 rpm and washed by 0.05% PBST. Then 100 μL 0.4 μg/mL HRP-conjugated anti-sdAb secondary antibody (Jackson, #128-035-232) was added and subject to 1 hr incubation at room temperature under shaking at 100 rpm. The plate was then washed by 0.05% PBST and developed using TMB solution (KPL, #5120-00820).

Row | Molecule | EC50
13 | B11 | 0.84 nM
14 | B12 | 7.41 nM
15 | B13 | 3.47 nM
16 | B14 | 1.93 nM
17 | B15 | 2.31 nM
18 | B16 | 1.75 nM
19 | B17 | 2.18 nM
20 | B18 | 3.11 nM

tested on: not listed separately; test: Pharmacokinetic study of FAP-linker conjugates (serum ELISA, NCA); assay type: in vivo, BALB/c mice; conditions: BALB/c mice, intravenous, about 1 mg/kg, serum, over 48 hours
Description: he in vivo pharmacokinetic profile of the FAP-linker conjugates was analyzed. Briefly, BALB/c mice were administered with the conjugates by intravenous injection at a dose of about 1 mg/kg. Then, whole blood of the animal was collected at different time periods over 48 hours.
as §1, with “centrifugated” for “centrifuge”, “8” for “7”, “3.” for “2.”

Row | Molecule | AUCall | Cl | T1/2 | Vd
21 | B19 | 1560 ± 88 ng·h/mL | 10.7 ± 0.633 mL/min/kg | 29.2 ± 0.12 min | 0.315 ± 0.020 L/kg
22 | B20 | 45700 ± 3230 ng·h/mL | 0.367 ± 0.033 mL/min/kg | 486 ± 6.84 min | 0.206 ± 0.017 L/kg
